In publication PMC9192718 one finds stoichiometry N and stoichiometry N (Vps28 per Vps23 dimer) data, which are given here for three substances.

What is called stoichiometry N is the number of molecules, sites or subunits per partner or assembly.

Experiment [1] concerns the target Heimdallarchaeota AB125 Vps22 (HeimAB125_14050) (Heimdallarchaeota AB125). Nature of the experiment: cross-linking; Vps22 15 µM in 20 mM HEPES-NaOH pH 7.5, 150 mM NaCl; 16 mM EDC with 16 mM Sulfo-NHS (1 h) or 2 mM BS3 (2 h) on ice; SDS-PAGE.
The target is the same in experiment [2]. Kind of experiment: SEC-MALS; Heimdallarchaeotal Vps22 alone, loaded at 2.0 and 0.5 mg/ml; Superdex 200 increase 10/300; 20 mM Tris-HCl pH 8.0, 200 mM NaCl, 0.5 ml/min. For orientation: In gel filtration, larger molecules generally elute earlier.
For experiment [3], the target named is Odinarchaeota (Ca. Odinarchaeum yellowstonii LCB_4) Vps23 (TSG101) (Ca. Odinarchaeum yellowstonii LCB_4). Nature of the experiment: SEC-MALS; Odinarchaeota proteins; 100 µl at 2 mg/ml; Superdex 200 10/300 Increase GL; 20 mM Tris pH 8.0, 300 mM NaCl, 0.4 ml/min.

As for “Heimdallarchaeota AB125 Vps22 (HeimAB125_14050) (natural protein)”, the stoichiometry N in experiment [1] and in experiment [2] was 2 in each case.
For the substance “Odinarchaeota (Ca. Odinarchaeum yellowstonii LCB_4) Vps23 (TSG101) (natural protein)”, in experiment [3], the stoichiometry N amounted to 2.
Turning to “Odinarchaeota (Ca. Odinarchaeum yellowstonii LCB_4) Vps28 (natural protein)”, the stoichiometry N (Vps28 per Vps23 dimer) in experiment [3] was found to be 1.
